Results on two substances are retold here after patent publication US20250186597A1, “TARGETED IMMUNE ACTIVATION WITH IL-18 IMMUNOCYTOKINES” (BRIGHT PEAK THERAPEUTICS AG, priority 2023, published 2025).

One may read the Kd as the free concentration of one partner at which half of the binding sites on the other are occupied at equilibrium, for simple one-to-one binding. Low values mean tighter binding, high ones weaker binding. By EC50 is commonly meant the concentration at which the effect is half-maximal. The term IC50 denotes the concentration that gives 50% inhibition.

For assay [1], the target named is T1, human PD-1/CD279 (Homo sapiens, UniProt Q15116).
T1 construct: purchased Biolegend #789406
T1 sequence (Q15116 25-288): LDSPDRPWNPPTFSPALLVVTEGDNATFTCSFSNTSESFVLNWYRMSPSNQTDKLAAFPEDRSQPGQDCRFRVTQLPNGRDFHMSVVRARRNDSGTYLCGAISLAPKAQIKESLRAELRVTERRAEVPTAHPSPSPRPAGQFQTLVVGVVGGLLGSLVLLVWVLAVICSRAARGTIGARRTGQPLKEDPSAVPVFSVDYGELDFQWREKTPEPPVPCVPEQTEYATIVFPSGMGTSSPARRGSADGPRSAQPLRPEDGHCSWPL
Nature of the assay: PD-1 binding ELISA assay (Example 5). The following applies: biotinylated human PD-1. On the procedure:
(§1) The interaction of the unmodified antibodies and corresponding IL-18 immunocytokines with relevant immune cell associated antigen are measured by ELISA assay. For these studies, Corning high-binding half-area plates (Fisher Scientific, Reinach, Switzerland) are coated overnight at 4° C. with 25 μl of unmodified antibodies corresponding IL-18 immunocytokines at […] in PBS. […] Plate surfaces are blocked with 25 μl of PBS-0.02% Tween20-1% BSA at 37° C. during 1 h. […] ELISA signal is then measured at 450 nm on an ENSPIRE® plate reader from Perkin Elmer (Schwerzenbach, Switzerland).
In general terms: An ELISA detects its analyte on a solid surface through an enzyme-linked reagent.

The target of assay [2] is T2, human Fc gamma receptors I (FcγRI/CD64) (Homo sapiens, UniProt P12314).
T2 construct: purchased R&D systems 1257-FC-050
T2 sequence (P12314 16-374): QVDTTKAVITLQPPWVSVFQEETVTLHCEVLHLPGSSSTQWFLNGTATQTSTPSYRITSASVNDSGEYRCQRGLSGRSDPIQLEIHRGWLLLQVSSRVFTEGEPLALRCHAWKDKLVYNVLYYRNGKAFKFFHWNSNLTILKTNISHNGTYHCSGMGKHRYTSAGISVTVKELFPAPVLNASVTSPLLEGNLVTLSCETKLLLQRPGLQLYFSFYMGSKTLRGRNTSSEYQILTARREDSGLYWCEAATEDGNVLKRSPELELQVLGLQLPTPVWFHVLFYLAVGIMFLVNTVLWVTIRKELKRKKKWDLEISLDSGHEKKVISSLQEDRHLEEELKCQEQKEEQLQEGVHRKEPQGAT
Nature of the assay: Human FcγR binding ELISA, FcγRI/CD64 (Example 8). The following applies: ELISA binding affinity. On the procedure:
(§2) The interaction of the unmodified and of conjugated antibodies with human Fc gamma receptors I (FcγRI/CD64), with human Fc gamma receptors IIa (FcγRIIa/CD32a), with inhibitory human Fc gamma receptors IIb (FcγRIIb/CD32b), and with human Fc gamma receptors III FcγRIIIa/CD16 were measured by ELISA.
(§3) Briefly, Corning high-binding half-area plates (Fisher Scientific, Reinach, Switzerland) were coated overnight at 4° C. with 25 μl of unmodified and of conjugated anti-PD1 antibodies at 2.5 μg/ml in PBS. […] Plates surfaces were blocked with 25 μl of PBS-0.02% Tween20-1% BSA at 37° C. during 1 h. […] Twenty-five microliters of a 1/500 HRP-anti-His antibody in PBS—0.02% Tween20—0.1% BSA (R&D systems, anti-HIS—HRP Ab, #MAB050H) were added to each well and plates were incubated at Room Temperature during 1 h. […] ELISA signal was then measured at 450 nm on an EnSpire plate reader from Perkin Elmer (Schwerzenbach, Switzerland).

Assay [3] addresses T3, human Fc gamma receptors IIb (FcγRIIb/CD32b) (Homo sapiens, UniProt P31994).
T3 construct: purchased R&D systems AVI1875-050
T3 sequence (P31994 43-310): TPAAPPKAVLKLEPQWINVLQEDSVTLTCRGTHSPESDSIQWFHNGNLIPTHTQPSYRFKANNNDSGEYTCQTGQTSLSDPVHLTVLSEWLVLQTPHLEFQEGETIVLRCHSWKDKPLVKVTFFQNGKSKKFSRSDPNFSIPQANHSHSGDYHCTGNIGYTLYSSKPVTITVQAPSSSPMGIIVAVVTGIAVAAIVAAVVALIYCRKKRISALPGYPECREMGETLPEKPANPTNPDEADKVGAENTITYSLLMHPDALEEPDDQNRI
Briefly: Human FcγR binding ELISA, FcγRIIb/CD32b (Example 8). The following applies: ELISA binding affinity. As to the method:
as §2, §3

Assay [4] deals with T4, human neonatal Fc receptor (FcRn) (Homo sapiens, UniProt P55899).
T4 construct: purchased Perkin Elmer AL3095C
T4 sequence (P55899 24-297 limits assumed): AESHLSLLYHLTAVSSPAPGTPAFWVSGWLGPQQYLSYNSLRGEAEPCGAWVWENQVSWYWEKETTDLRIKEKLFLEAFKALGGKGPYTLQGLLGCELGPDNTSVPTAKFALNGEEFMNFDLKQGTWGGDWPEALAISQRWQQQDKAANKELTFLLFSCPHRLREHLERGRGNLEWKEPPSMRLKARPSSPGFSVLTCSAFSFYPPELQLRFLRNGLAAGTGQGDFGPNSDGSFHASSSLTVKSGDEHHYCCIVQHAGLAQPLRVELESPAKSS
T4 sequence (P61769 21-119 partner): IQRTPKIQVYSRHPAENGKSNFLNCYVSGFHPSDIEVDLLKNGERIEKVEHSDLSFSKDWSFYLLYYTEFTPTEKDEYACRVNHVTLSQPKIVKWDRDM
Nature of the assay: Human FcRn binding AlphaLISA at pH 6 (Example 9). As to the method: The interaction of the unmodified and of conjugated anti-PD1 antibodies with the human neonatal Fc receptor (FcRn) at pH 6 was measured using the AlphaLISA® Human FcRn Binding Kit (AL3095C) from Perkin Elmer (Schwerzenbach, Switzerland). […] When reference IgG binds to FcRn, donor and acceptor beads come into proximity enabling the transfer of singlet oxygen that trigger a cascade of energy transfer reactions in the acceptor beads, resulting in a sharp peak of light emission at 615 nm. Addition of a free IgG antibodies into the AlphaLISA® mixture creates a competition for the binding of FcRn to the reference antibody resulting in a loss of signal.
After 90 min at 23° C. in the dark, AlphaLISA® signal was measured on an EnSpire plate reader (Excitation at 680 nm, Emission at 615 nm) from Perkin Elmer (Schwerzenbach, Switzerland).

Assay [5] concerns the target T5, human PD-L1/B7-H1 (Homo sapiens, UniProt Q9NZQ7).
T5 construct: purchased ACROBiosystems PD1-H82E5-25UG
Nature of the assay: PD-L1 binding ELISA assay (Example 5). The following applies: biotinylated human PD-L1. As to the method:
as §1

Assay [6] concerns the target T6, human Fc gamma receptors IIa (FcγRIIa/CD32a) (Homo sapiens, UniProt P12318).
T6 construct: purchased R&D systems 9595-CD-050
T6 sequence (P12318 34-317): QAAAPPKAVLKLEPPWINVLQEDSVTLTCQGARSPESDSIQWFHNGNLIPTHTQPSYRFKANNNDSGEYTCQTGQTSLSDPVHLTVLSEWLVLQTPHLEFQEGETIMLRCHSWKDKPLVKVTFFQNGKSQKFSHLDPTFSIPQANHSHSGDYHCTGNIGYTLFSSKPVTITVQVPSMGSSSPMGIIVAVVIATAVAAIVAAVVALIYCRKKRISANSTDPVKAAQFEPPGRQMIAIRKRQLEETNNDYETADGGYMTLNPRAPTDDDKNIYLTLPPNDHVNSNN
Nature of the assay: Human FcγR binding ELISA, FcγRIIa/CD32a (Example 8). The following applies: ELISA binding affinity. As to the method:
as §2, §3

Assay [7] concerns the target T7, human Fc gamma receptors III FcγRIIIa/CD16 (Homo sapiens, UniProt P08637).
T7 construct: purchased R&D systems 4325-FC-050
Briefly: Human FcγR binding ELISA, FcγRIIIa/CD16 (Example 8). The following applies: ELISA binding affinity. On the procedure: as §2, §3

In assay [8] the test system is parental PD-1 negative KG-1 cells. Briefly: IFN gamma secretion assay in parental PD-1 negative KG-1 cells (Example 11). Type of assay: cell-based, human. The following applies: IFNγ secretion. As to the method:
(§4) The KG-1 cell line was used to generate a PD-1 expressing cell line and furthermore, to measure IFNγ release upon incubation with IL-18 variants and corresponding IL-18 immunocytokines.
(§5) IFNγ release was assessed in PD-1 positive (transduced) KG-1 cells, as well as in the parental PD-1 negative cells. 0.5×10^5 cells were seeded into a 96-well U-bottom plate in culture media (RPMI, 10% FBS, 1% L-Glutamine) and stimulated with IL-18 variants/ICs for 20-24 h. The test items were diluted to 100 nM in culture medium, followed by 7 10-fold serial dilutions. The lowest concentration assessed was […]. After incubation, IFNγ release was measured using the LEGENDplex custom human mix and match KIT (Biolegend LEGENDplex™ Human IFN-γ Capture Bead B5, 13X #740942, LEGENDplex™ HU Essential Immune Response Panel Detection Abs, #740931, LEGENDplex™ Buffer Set A #740368). To this end, cell culture supernatant was collected and diluted 1:1 with Assay Buffer. Fluorescence measurements were done with a Quanteon Flow Cytometer from Acea Biosciences. For analysis, MFI values (median fluorescence intensity) were exported and plotted against concentrations used. The EC50 values (half maximal effective concentration) were calculated based on a variable slope and four parameter analysis using GraphPad PRISM software version 9.

Assay [9] addresses T8, human IL-18 Binding Protein (IL-18BP) (Homo sapiens, UniProt O95998).
T8 sequence (O95998 31-194): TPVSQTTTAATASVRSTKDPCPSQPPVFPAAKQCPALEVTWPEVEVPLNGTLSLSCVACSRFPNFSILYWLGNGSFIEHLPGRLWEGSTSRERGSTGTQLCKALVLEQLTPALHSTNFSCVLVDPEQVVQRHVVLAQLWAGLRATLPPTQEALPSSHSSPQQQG
Nature of the assay: IL-18 Binding Protein alphaLISA assay (Example 12). The following applies: human IL-18BP. On the procedure:
Wild type or modified IL-18 polypeptides samples were diluted at 5.6 μM in a solution of 1× alphaLISA Immunoassay Buffer provided in the alphaLISA IFNγ Detection kit and were diluted applying 3-fold serial dilutions down to […] in 384 deep well plates. A solution of 10 ng/ml of human IL-18BP-His was prepared with 1×alphaLISA Immunoassay Buffer. IL-18/IL-18BP complex formation was performed incubating 30 μl of IL-18BP solution to IL-18 sample titrations for 1 h at 20° C. IL-18BP standard was prediluted from stock solution supplied in alphaLISA IFNγ Detection kit at 100 ng/ml with 1×alphaLISA Buffer and titration prepared from applying 2-fold serial dilutions. The following solutions were prepared: a 50 μg/ml solution of anti-IL-18BP alphaLISA Acceptor beads, a 5 nM solution of biotinylated anti-IL18BP antibody and a 80 μg/ml light-protected solution of Streptavidin Donor beads in 1×alphaLISA Immunoassay Buffer. […]
5 μl of Biotinylated anti-IL-18BP antibody were added, followed by a short centrifugation step at 150 g, and incubated for 60 minutes at 20° C. under shaking at 750 rpm. […] AlphaLisa signal was then measured on an Enspire plate reader (Perkin Elmer) using 680 and 615 nm as excitation and emission wavelengths respectively. […]
On the technique in general: Bead proximity is the source of the signal in Alpha formats.

In assay [10] the test system is NK92 cells. Briefly: Cellular IL-18 Binding Protein resistance assay in NK92 cells (Example 13). The following applies: IL-18BP-mediated inhibition of IFNγ secretion, IL-18 analyte 1 nM. Type of assay: cell-based, human. On the procedure:
The NK cell line NK-92 derived from a patient with lymphoma (ATCC, Cat #CR^L-2407) was cultured in αMEM medium supplemented with 20% FCS-Glutamax, 25 μM B-mercaptoethanol, and 100 IU/ml of recombinant Human Interleukin-2 (IL-2). On the day of experiment, cells were harvested and washed with αMEM medium without IL-2. After counting, cells were seeded at 100 000 cells/well in a 384 well titer plate and incubated at 37° C./5% CO2. Sixteen 2-fold serial dilutions of Fc fused human IL-18 binding protein isoform a (IL-18BPa; R&D systems, Cat #119-BP) were prepared in αMEM medium—1 ng/ml IL-12 containing 2 nM of each IL-18 variants and were added to the NK-92 cells. Final IL-18 analytes concentration was 1 nM and final IL-18BPa concentrations ranged from to 566 nM down to 17 pM.
After 16-20 h incubation at 37° C./5% CO2, 5 μl of supernatant were carefully transferred to a 384 microwells OPTIplate (Perkin Elmer; Cat #6007270) and Interferon-gamma (IFNγ) levels measured using the Human IFNγ AlphaLISA Assay Kit (Perkin Elmer, Cat #AL217C). […] AlphaLisa signal was then measured on an Enspire plate reader (Perkin Elmer) using 680 and 615 nm as excitation and emission wavelengths respectively. Half maximal inhibitory concentration (IC50) was calculated based on a variable slope, four parameter analysis using GraphPad PRISM software.

Assay [11] deals with PD-1 positive (transduced) KG-1 cells. Briefly: IFN gamma secretion assay in PD-1 transduced KG-1 cells (Example 11). Format: cell-based, human. On the procedure:
as §4
PD-1 expressing cell line generation: Briefly, KG-1 cells were transduced using lentiviral particles carrying the human PD-1 gene (PDCD1 NM_005018; Origene, CAT #: RC210364L3V) at a MOI (Multiplicity of Infection) of 30. Spinfection was performed at 1260 g during 90 min at 37° C. in the presence of 5 μg/ml of Polybrene and 10 mM of HEPES in complete culture media (RPMI, 10% FBS, 1% L-Glutamine). Five days after transduction, puromycin at a final concentration of 1 ug/ml was added to select for PD-1 positive cells. For culture maintenance, puromycin concentration was decreased to 0.5 μg/ml. Stable and homogenous expression of PD-1 was verified by surface staining (BD Pharmingen, #557860).
as §5

The subject of assay [12] is NK92 cells. Nature of the assay: IFN gamma secretion assay in NK92 cells (Example 10). Type of assay: cell-based, human. The following applies: IFNγ secretion, 1 ng/ml IL-12. As to the method: The IFNγ-secretion stimulating activity of the unconjugated IL-18 variants and corresponding IL-18 immunocytokines was evaluated on NK92 cell line. The NK cell line NK-92 derived from a patient with lymphoma (ATCC, Cat #CRL-2407) was cultured in aMEM medium supplemented with 12.5% FCS, 12.5% horse serum (HS), 50 uM B-mercaptoEthanol, and 2 ng/ml of recombinant Human Interleukin-2 (IL-2).
On the day of experiment, cells were harvested and washed with aMEM medium without IL-2 and resuspended in medium (w/o IL-2) containing 1 ng/ml of recombinant human Interleukin-12 (SinoBiologicals, Cat #CT011-H08H). After counting, cells were seeded at 100 000 cells/well in a 384 well titer plate and incubated at 37° C./5% CO2. Sixteen 4-fold serial dilutions of IL-18 analytes were prepared in aMEM medium—1 ng/ml IL-12 and were added to the NK-92 cells. […]
After 16-20 h incubation at 37° C./5% CO2, 5 μl of supernatant were carefully transferred to a 384 microwells OPTIPlate (Perkin Elmer; Cat #6007270) and Interferon-gamma (IFNγ) levels measured using the Human IFNγ AlphaLISA Assay Kit (Perkin Elmer, Cat #AL217C). […] AlphaLisa signal was then measured on an Enspire plate reader (Perkin Elmer) using 680 and 615 nm as excitation and emission wavelengths respectively. Half maximal effective concentration (EC50) was calculated based on a variable slope, four parameter analysis using GraphPad PRISM software.

T7 sequence (P08637 17-254): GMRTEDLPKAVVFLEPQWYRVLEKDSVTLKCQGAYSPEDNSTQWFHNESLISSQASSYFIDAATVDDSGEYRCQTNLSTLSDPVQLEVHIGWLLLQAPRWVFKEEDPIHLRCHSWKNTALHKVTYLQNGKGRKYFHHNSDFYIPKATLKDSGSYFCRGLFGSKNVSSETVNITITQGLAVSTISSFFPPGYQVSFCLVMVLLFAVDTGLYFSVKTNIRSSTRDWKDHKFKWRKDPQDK
T5 sequence (Q9NZQ7 19-290): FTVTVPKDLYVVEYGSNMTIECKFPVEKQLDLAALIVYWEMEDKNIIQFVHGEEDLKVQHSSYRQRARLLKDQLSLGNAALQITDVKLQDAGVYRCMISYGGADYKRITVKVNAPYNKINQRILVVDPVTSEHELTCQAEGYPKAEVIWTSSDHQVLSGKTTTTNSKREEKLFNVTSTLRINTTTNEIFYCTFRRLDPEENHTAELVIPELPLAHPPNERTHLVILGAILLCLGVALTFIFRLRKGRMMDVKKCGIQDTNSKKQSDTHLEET

In the case of Atezolizumab/Tecentriq, the Kd in [1] is > 100 nM; in assay [2], 9.17 nM; in assay [3], > 10000 nM; in assay [4] it was 6.4 nM; in [5], 0.443 nM; in assay [6], 1370 nM. Besides, the equilibrium dissociation constant (Kd) in [7] was 356 nM.
On to “SEQ ID NO: 31: IL-18 polypeptide: C38A, C76A, C127A”, for which the EC50 was found to be 0.148 nM in assay [8]; 0.135 nM in assay [11] (IFNγ secretion, PD-1 transduced KG-1); 0.103 nM in assay [12]. Moreover, binding in assay [9] was characterised by a dissociation constant (Kd) of 0.103 nM. In addition, the IC50 in assay [10] was 0.282 nM. Further, the “PD-1^neg/PD-1^pos EC50 ratio” value in [11] (KG-1 cells) came out at 1.2.
